We go through 3 substances from patent publication US6248712.

Assay [1] addresses human single-chain pro-u-PA (human) (UniProt P00749).
The target in assay [2] is u-PA bound to u-PAR on the cell surface (human) (UniProt P00749). Nature of the assay: association rate constant from inhibition kinetics of plasminogen activation by u-PAR-bound u-PA on U937 cells.
Assay [3] has the same target. Nature of the assay: inhibition kinetics, u-PAR-bound u-PA on PMA-stimulated U937 cells against u-PA in solution.
The target is the same in assay [4]. Nature of the assay: inhibition kinetics, u-PAR-bound u-PA on U937 cells against u-PA in solution.
The target is the same in assay [5]. Briefly: association rate constant from inhibition kinetics of plasminogen activation by u-PAR-bound u-PA on PMA-stimulated U937 cells.
For assay [6] the target is unchanged.
For assay [7], the target named is human urokinase-type plasminogen activator, active two-chain 54 kD form (human) (UniProt P00749).

Chain of plasminogen activator inhibitor type 2 (P05120 whole entry): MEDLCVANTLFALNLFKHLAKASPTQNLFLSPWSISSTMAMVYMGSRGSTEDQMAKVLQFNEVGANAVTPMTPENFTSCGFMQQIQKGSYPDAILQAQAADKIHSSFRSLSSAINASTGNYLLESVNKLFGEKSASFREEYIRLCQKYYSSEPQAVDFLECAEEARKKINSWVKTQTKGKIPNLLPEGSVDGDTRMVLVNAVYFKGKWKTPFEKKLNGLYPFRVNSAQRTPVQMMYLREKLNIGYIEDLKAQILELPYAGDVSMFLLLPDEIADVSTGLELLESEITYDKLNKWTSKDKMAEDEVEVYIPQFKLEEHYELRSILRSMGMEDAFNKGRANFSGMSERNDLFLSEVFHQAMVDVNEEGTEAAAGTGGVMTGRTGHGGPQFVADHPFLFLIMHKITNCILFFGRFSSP
Chain of human plasmin (P00747 97-810 limits assumed): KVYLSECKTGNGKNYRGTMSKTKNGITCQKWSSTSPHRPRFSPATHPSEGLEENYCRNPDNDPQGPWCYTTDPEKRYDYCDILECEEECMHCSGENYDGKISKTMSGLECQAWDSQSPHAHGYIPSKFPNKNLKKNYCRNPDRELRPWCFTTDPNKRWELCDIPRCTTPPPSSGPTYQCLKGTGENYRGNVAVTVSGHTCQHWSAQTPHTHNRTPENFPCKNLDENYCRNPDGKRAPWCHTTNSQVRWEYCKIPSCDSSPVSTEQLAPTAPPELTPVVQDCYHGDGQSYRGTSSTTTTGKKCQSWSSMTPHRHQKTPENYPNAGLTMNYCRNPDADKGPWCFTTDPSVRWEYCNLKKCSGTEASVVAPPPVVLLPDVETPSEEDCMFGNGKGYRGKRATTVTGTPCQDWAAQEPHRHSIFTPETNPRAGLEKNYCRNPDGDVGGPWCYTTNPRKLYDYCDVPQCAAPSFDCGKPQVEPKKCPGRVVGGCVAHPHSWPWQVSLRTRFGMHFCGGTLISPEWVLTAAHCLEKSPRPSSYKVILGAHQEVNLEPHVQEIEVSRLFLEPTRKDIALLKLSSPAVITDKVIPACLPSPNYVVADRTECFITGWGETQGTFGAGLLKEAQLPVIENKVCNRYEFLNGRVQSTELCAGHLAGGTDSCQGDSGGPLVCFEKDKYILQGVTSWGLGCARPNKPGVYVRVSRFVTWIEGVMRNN

“human plasmin (from UniProt P00747) (enzyme)”: in assay [1], the generation of u-PA amidolytic activity from pro-u-PA (ng/ml equivalent two-chain u-PA per min) came out at 0.6.

As usually defined, the kon is a measure of how fast the partners come together. As for “plasminogen activator inhibitor type 1 (from UniProt P05121)”, the figures for the on-rate (kon) in assay [2] and in assay [5] were 4.5e+06 M⁻¹ s⁻¹ and 1.7e+06 M⁻¹ s⁻¹, respectively. Further, the rate of inhibition relative to u-PA in solution in assay [3] amounted to 20%; in assay [4] it was 60%.

Take “plasminogen activator inhibitor type 2 (from UniProt P05120)”: the Bound plasmin activity (%) after preincubation of the cells and washing in assay [6] is 54%. The on-rate (kon) in assay [2] was 330000 M⁻¹ s⁻¹; in assay [5], 110000 M⁻¹ s⁻¹. Also, the Bound plasmin activity (%) at 3 h and 17 h; u-PA activity in medium (%) in assay [7] was 48%. In assay [4], this substance had an association-rate constant relative to u-PA in solution of 60%.
